This passage reports self-cleavage results from the RNAGym collection of RNA variant scans (doi:10.7554/elife.80360).

B1: CPEB3 Ribozyme (parent)
chain: GGGGGCCACAGCAGAAGCGUUCACGUCGCGGCCCCUGUCAGAUUCUGGUGAAUCUGCGAAUUCUGCUGU

The variants in the series derive from B1. As to the kind of experiment: self-cleavage, relative activity (ratio to wild type); higher = more cleavage; co-transcriptional.
Turning to GGGGGCCACAGCAGAAGCGUUAACGUCGCGGCCCCCGUCAGAUUCUGGUGAAUCUGCGAAUUCUGCUGU, the self-cleavage came to 0.169. Then GGGGGCCACAGCAGAAGCGUGCACGUCGCGGCCCCUGUCAGAUUCUGGUGAAUCUGCGAAUUCCGCUGU, with 0.254. Then GGGGGCCACAGCAGAAGCGUGCACGUCGCGGCCCCUGUCAGAUUCUGGUGAAUCUGCGAAUUCAGCUGU, with 0.304; and GGGGGCCACAGCAGAAGCGUGCACGUCGCGGCCCCUGUCAGAUUCUGGUGAAUCUGCGAAUUCGGCUGU, with 0.295; and GGGGGCCACAGCAGAAGCGUUAACGUCGCGGCCCCUGUCAGAUUCUGGUGAAUCUGCGAAUUCUCCUGU, with 0.147. Then GGGGGCCACAGCAGAAGCGUUAACCUCGCGGCCCCUGUCAGAUUCUGGUGAAUCUGCGAAUUCUGCUGU, with 0.255. GGGGGCCACAGCAGAAGCGUGCACGUCGCGGCCCCUGUCAGAUUCUGGUAAAUCUGCGAAUUCUGCUGU: the self-cleavage worked out at 0.488.

For the variant GGGGGCCACAGCAGAAGCGUGCACGUCGCGGCCCCUGUCAGAUUCUGGUCAAUCUGCGAAUUCUGCUGU, the self-cleavage was 0.616. With GGGGGCCACAGCAGAAGCGUUAACGUCGCGGCCCCUGUCAGAUUCUGGUGAAUCGGCGAAUUCUGCUGU the figure was 0.162.

As to GGGGGCCACAGCAGAAGCGUUAACGUCGCGGCCCCUGUGAGAUUCUGGUGAAUCUGCGAAUUCUGCUGU, the self-cleavage was determined as 0.223. Then GGGGGCCACAGCAGAAGCGUUAACGUCGCGGCCCCUGUAAGAUUCUGGUGAAUCUGCGAAUUCUGCUGU, with 0.161; and GGGGGCCACAGCAGAAGCGUGCACGUCGCGGCCCCUGUCAGAUUCUGGUGAAUCUCCGAAUUCUGCUGU, with 0.495; and GGGGGCCACAGCAGAAGCGUGCACGUCGCGGCCCCUGUCAGAUUCUGGUGAAUCUACGAAUUCUGCUGU, with 0.774. With GGGGGCCACAGCAGAAGCGUUAACGUCGCGGCCCCUAUCAGAUUCUGGUGAAUCUGCGAAUUCUGCUGU the figure was 0.212; with GGGGGCCACAGCAGAAGCGUUAACGUCGCGGCCCCUGUCAGAUUCUGGUGAAUCUGCGAAUUCUGAUGU, 0.232; with GGGGGCCACAGCAGAAGCGUUAACGUCGCGGCCCCUGUCAGAUUCUGGUGAACCUGCGAAUUCUGCUGU, 0.239. Regarding GGGGGCCACAGCAGAAGCGUGCACGUCGCGGCCCCUGUCAGAUUCUGGUGAAACUGCGAAUUCUGCUGU, the self-cleavage turned out to be 0.473. Then GGGGGCCACAGCAGAAGCGUGCACGUCGCGGCCCCUGUCAGAUUCUGGUGAAUCUGCGAAUUCUACUGU, with 0.255; and GGGGGCCACAGCAGAAGCGUGCACGUCGCGGCCCCUGUCAGAUUCCGGUGAAUCUGCGAAUUCUGCUGU, with 0.635; and GGGGGCCACAGCAGAAGCGUUAACGUCGCGGCCCCUGUCAGAUUCUGGUAAAUCUGCGAAUUCUGCUGU, with 0.24. GGGGGCCACAGCAGAAGCGUGCACGUCGCGCCCCCUGUCAGAUUCUGGUGAAUCUGCGAAUUCUGCUGU: the self-cleavage stood at 0.181. With GGGGGCCACAGCAGAAGCGUUAACGUAGCGGCCCCUGUCAGAUUCUGGUGAAUCUGCGAAUUCUGCUGU the figure was 0.158; with GGGGGCCACAGCAGAAGCGUUAACGUGGCGGCCCCUGUCAGAUUCUGGUGAAUCUGCGAAUUCUGCUGU, 0.168.

Regarding GGGGGCCACAGCAGAAGCGUUAACGUUGCGGCCCCUGUCAGAUUCUGGUGAAUCUGCGAAUUCUGCUGU, the self-cleavage came out at 0.144.

For GGGGGCCACAGCAGAAGCGUUAACGUCGCGGCCCCUGUCAGAUUCUGGUGAAUCUGCGUAUUCUGCUGU, the self-cleavage came out at 0.198. With GGGGGCCACAGCAGAAGCGUUAACGUCGCGGCCCCUGUCAGAUUCUGGUGAAUCUGCGGAUUCUGCUGU the figure was 0.232; with GGGGGCCACAGCAGAAGCGUUAACGUCGCGGCCCCUGUCAGAUUCUGGUGAAUCUGCGCAUUCUGCUGU, 0.192; with GGGGGCCACAGCAGAAGCGUUAACGUCGCGGCCCCUGUCAGAUUCUGGUGAAUCUGCCAAUUCUGCUGU, 0.184. With GGGGGCCACAGCAGAAGCGUUAACGUCGCGGCCCCUGCCAGAUUCUGGUGAAUCUGCGAAUUCUGCUGU the figure was 0.151. In the case of GGGGGCCACAGCAGAAGCGUUAACGUCGCAGCCCCUGUCAGAUUCUGGUGAAUCUGCGAAUUCUGCUGU, the self-cleavage is 0.167. With GGGGGCCACAGCAGAAGCGUGCACGUCGCGGCCCCUGUCAGAUUCUGGUGAAUCUGCGAAUUCUGCUUU the figure was 0.701.

On to GGGGGCCACAGCAGAAGCGUGCACGUCGCGGCCCCUGUCAGAUUCUGGUGAAUCUGCGAAUUCUGCUCU, for which the self-cleavage came out at 0.783.

Consider GGGGGCCACAGCAGAAGCGUUAACGUCGCGGCCCCUGUCAGAUUCUGGUGAAUCUUCGAAUUCUGCUGU, for which the self-cleavage amounted to 0.151. For the variant GGGGGCCACAGCAGAAGCGUUAACGACGCGGCCCCUGUCAGAUUCUGGUGAAUCUGCGAAUUCUGCUGU, the self-cleavage was 0.117. With GGGGGCCACAGCAGAAGCGUUAACGUCGCGGCCCCUGUCAGAUUCUCGUGAAUCUGCGAAUUCUGCUGU the figure was 0.157; with GGGGGCCACAGCAGAAGCGUUGCCGUCGCGGCCCCUGUCAGAUUCUGGUGAAUCUGCGAAUUCUGCUGU, 0.179. With GGGGGCCACAGCAGAAGCGUUGUCGUCGCGGCCCCUGUCAGAUUCUGGUGAAUCUGCGAAUUCUGCUGU the figure was 0.24.

Turning to GGGGGCCACAGCAGAAGCGUGCACGUCGCGGCCCCUGUCAGAUUCUGGUGAAUCUGCGAAUUCUGCCGU, the self-cleavage came out at 0.458. Then GGGGGCCACAGCAGAAGCGUGCACGUCGCGGCCCCUGUCAGAUUCUGGUGAAUCUGCGAAUUCUGCAGU, with 0.549.

For GGGGGCCACAGCAGAAGCGUUAACGUCGCGGCCCCUGUCAGAUUCUGGUGACUCUGCGAAUUCUGCUGU, the self-cleavage stood at 0.173. With GGGGGCCACAGCAGAAGCGUUAACGUCGCGGCCCCUGUCAGAUUCUGGUGAAUCUGCGAAUACUGCUGU the figure was 0.148; with GGGGGCCACAGCAGAAGCGUUAACGUCGCGGCCCCUGUCAGAUUCUGGUGAAUCUGCGAAUCCUGCUGU, 0.17; with GGGGGCCACAGCAGAAGCGUUAACGUCGCGGCCCCUGUCAGACUCUGGUGAAUCUGCGAAUUCUGCUGU, 0.167. With GGGGGCCACAGCAGAAGCGUUAACGUCGCGGCCCCUGUCAGAUUCUGGUGAAUAUGCGAAUUCUGCUGU the figure was 0.0889. Then GGGGGCCACAGCAGAAGCGUGCACGCCGCGGCCCCUGUCAGAUUCUGGUGAAUCUGCGAAUUCUGCUGU, with 0.308; and GGGGGCCACAGCAGAAGCGUUAACGUCGCGGCCCCUGUCAGUUUCUGGUGAAUCUGCGAAUUCUGCUGU, with 0.181; and GGGGGCCACAGCAGAAGCGUUAACGUCGCGGCGCCUGUCAGAUUCUGGUGAAUCUGCGAAUUCUGCUGU, with 0.168.

GGGGGCCACAGCAGAAGCGUUAACGUCGCGGCCCCUGUCAGAUCCUGGUGAAUCUGCGAAUUCUGCUGU: the self-cleavage amounted to 0.217. With GGGGGCCACAGCAGAAGCGUUAACGUCGCGGCCCCUGUCAGAUACUGGUGAAUCUGCGAAUUCUGCUGU the figure was 0.184.

For GGGGGCCACAGCAGAAGCGUUAACGUCGCGGCCCCUGUCAGAUUAUGGUGAAUCUGCGAAUUCUGCUGU, the self-cleavage worked out at 0.155. Then GGGGGCCACAGCAGAAGCGUUAACGUCGCGGCCCCUGUCAGAUUUUGGUGAAUCUGCGAAUUCUGCUGU, with 0.158; and GGGGGCCACAGCAGAAGCGUUAACGUCGCGGCCCCUGUCAGAUUCUGGUGAAUCUGCGAAUUCUGCUCU, with 0.27; and GGGGGCCACAGCAGAAGCGUUAACGUCGCGGCCCCUGUCAGAUUCUGGUGAAUCUGCGAAUUCUGCUAU, with 0.247. Then GGGGGCCACAGCAGAAGCGUUAACGUCGCGGCCCCUGUCAGAUUCUGGUGAAUCUGCGAAUUCUGCUUU, with 0.264. Then GGGGGCCACAGCAGAAGCGUGCACGUCGCGGCCCCUGUCAGAUUCUGGGGAAUCUGCGAAUUCUGCUGU, with 0.486; and GGGGGCCACAGCAGAAGCGUGCACGUCGCGGCCCCUGUCAGAUUCUGGAGAAUCUGCGAAUUCUGCUGU, with 0.527. Turning to GGGGGCCACAGCAGAAGCGUUAACGUCGCGGCCGCUGUCAGAUUCUGGUGAAUCUGCGAAUUCUGCUGU, the self-cleavage turned out to be 0.175. With GGGGGCCACAGCAGAAGCGUUAACGUCGCGGCCUCUGUCAGAUUCUGGUGAAUCUGCGAAUUCUGCUGU the figure was 0.219. GGGGGCCACAGCAGAAGCGUGCACGUCGCGGCCCCCGUCAGAUUCUGGUGAAUCUGCGAAUUCUGCUGU: the self-cleavage was found to be 0.134. Regarding GGGGGCCACAGCAGAAGCGUGCACGUCGCGGCCCCGGUCAGAUUCUGGUGAAUCUGCGAAUUCUGCUGU, the self-cleavage stood at 0.232. With GGGGGCCACAGCAGAAGCGUGCACGUCGCGGCCCCUGUCAGAUUCUAGUGAAUCUGCGAAUUCUGCUGU the figure was 0.715. As to GGGGGCCACAGCAGAAGCGUGCACGUCGCGGCCCCUGUCAGAUUCUCGUGAAUCUGCGAAUUCUGCUGU, the self-cleavage amounted to 0.818. On to GGGGGCCACAGCAGAAGCGUGCACGUCGCGGCCCCUGUCAGAUUCUUGUGAAUCUGCGAAUUCUGCUGU, for which the self-cleavage was 0.638. Then GGGGGCCACAGCAGAAGCGUUAACGUCGCGGCCCCUGUCAGAUUCUGGUGAAUCUGAGAAUUCUGCUGU, with 0.174; and GGGGGCCACAGCAGAAGCGUUGACGUCGCGGCCCCUGUCUGAUUCUGGUGAAUCUGCGAAUUCUGCUGU, with 0.105; and GGGGGCCACAGCAGAAGCGUUGACGUCGCGGCCCCUGUCCGAUUCUGGUGAAUCUGCGAAUUCUGCUGU, with 0.23. With GGGGGCCACAGCAGAAGCGUUGACGUCGCGGCCCCUGUCGGAUUCUGGUGAAUCUGCGAAUUCUGCUGU the figure was 0.204; with GGGGGCCACAGCAGAAGCGUUAACGUCGCGGCCCCUGUCAGAUUCUGGUGAAUCUGCGAAUUCUGCCGU, 0.21.

For the variant GGGGGCCACAGCAGAAGCGUUAACGUCGCGGCCCCUGUCAGAUUCUGGUGAAUCUGCGAAUUUUGCUGU, the self-cleavage was found to be 0.194. With GGGGGCCACAGCAGAAGCGUUAAAGUCGCGGCCCCUGUCAGAUUCUGGUGAAUCUGCGAAUUCUGCUGU the figure was 0.0966. In the case of GGGGGCCACAGCAGAAGCGUGCACGUCGCGGCCCCUGUCAGAUUCUGGUGAAUCUGCAAAUUCUGCUGU, the self-cleavage turned out to be 0.281.

Regarding GGGGGCCACAGCAGAAGCGUUAACGUCGCGGCCCCUGUCAGAUUCUGGUGAAUCUGCGAGUUCUGCUGU, the self-cleavage stood at 0.279. Then GGGGGCCACAGCAGAAGCGUUAACGUCGCGGCCCCUGUCAGAUUCUGGUGAAUCUGCGAUUUCUGCUGU, with 0.222.

As for GGGGGCCACAGCAGAAGCGUGCACGUCGCGGCCCCUGUCAGAUUCUGGUGAAUCUGCGAAAUCUGCUGU, the self-cleavage worked out at 0.319.

With GGGGGCCACAGCAGAAGCGUUAUCGUCGCGGCCCCUGUCAGAUUCUGGUGAAUCUGCGAAUUCUGCUGU, the self-cleavage is 0.281. With GGGGGCCACAGCAGAAGCGUUAGCGUCGCGGCCCCUGUCAGAUUCUGGUGAAUCUGCGAAUUCUGCUGU the figure was 0.198. GGGGGCCACAGCAGAAGCGUGCACGUCGCGGCCCCUGCCAGAUUCUGGUGAAUCUGCGAAUUCUGCUGU: the self-cleavage amounted to 0.932. Turning to GGGGGCCACAGCAGAAGCGUUAACGUCGCGGCCCCUGUCAGAUUCUGGUGCAUCUGCGAAUUCUGCUGU, the self-cleavage worked out at 0.176.
